Assay results taken from article PMC4658561, “A mechanism of glucose tolerance and stimulation of GH1 β-glucosidases” (Scientific Reports, 2015).
Changes are numbered by the printed parent chain.

Experiments:
[1] = biological target: T1, Bgl1A (uncultured bacterium, UniProt D5KX75); assay: relative activity on pNPG versus glucose concentration; type: biochemical; conditions: pH […], stimulation at low concentration, transglycosylation acceptor
T1 construct: pET-22b(+) NdeI/XhoI, C-terminal His6 (kept), E. coli BL21(DE3), Ni-NTA purified; GH1, EC 3.2.1.21; residues T228, Q301, F302
T1 sequence (D5KX75 1-442): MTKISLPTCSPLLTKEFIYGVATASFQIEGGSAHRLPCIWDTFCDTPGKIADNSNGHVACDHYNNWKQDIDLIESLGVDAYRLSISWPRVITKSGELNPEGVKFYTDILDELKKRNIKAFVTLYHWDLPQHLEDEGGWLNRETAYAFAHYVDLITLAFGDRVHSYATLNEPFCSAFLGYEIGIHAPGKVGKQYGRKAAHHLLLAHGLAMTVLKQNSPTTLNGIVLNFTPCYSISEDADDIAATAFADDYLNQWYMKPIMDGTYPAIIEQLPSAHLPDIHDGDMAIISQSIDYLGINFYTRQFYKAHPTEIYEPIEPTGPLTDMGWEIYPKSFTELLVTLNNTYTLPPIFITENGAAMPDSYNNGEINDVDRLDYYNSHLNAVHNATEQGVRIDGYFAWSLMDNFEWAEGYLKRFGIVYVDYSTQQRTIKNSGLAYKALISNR

[2] = biological target: T2, Bgl1B (uncultured bacterium, UniProt D0VEC8, H228T); assay: as above; type: biochemical; conditions: pH […], stimulation at low concentration, transglycosylation acceptor
T2 construct: pET-22b(+) NdeI/XhoI, C-terminal His6 (kept), E. coli BL21(DE3), Ni-NTA purified; GH1, EC 3.2.1.21; residues V227, H228, N301, V302
T2 sequence (D0VEC8 1-449 H228T): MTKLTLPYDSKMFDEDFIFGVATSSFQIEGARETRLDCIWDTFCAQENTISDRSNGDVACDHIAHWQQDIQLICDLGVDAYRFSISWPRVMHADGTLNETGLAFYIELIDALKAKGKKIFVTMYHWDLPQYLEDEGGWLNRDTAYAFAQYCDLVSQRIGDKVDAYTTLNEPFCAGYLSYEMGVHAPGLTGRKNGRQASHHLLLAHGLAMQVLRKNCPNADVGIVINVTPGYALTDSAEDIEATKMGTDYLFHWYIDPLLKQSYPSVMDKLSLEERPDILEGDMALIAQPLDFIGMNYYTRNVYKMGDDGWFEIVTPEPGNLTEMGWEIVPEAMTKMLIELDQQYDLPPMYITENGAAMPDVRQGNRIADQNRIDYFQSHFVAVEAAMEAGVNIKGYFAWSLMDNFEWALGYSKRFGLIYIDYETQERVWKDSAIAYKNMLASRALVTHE

[3] = biological target: T3, Bgl1B (uncultured bacterium, UniProt D0VEC8); assay: as above; type: biochemical; conditions: pH […], product inhibition, competitive
T3 construct: pET-22b(+) NdeI/XhoI, C-terminal His6 (kept), E. coli BL21(DE3), Ni-NTA purified; GH1, EC 3.2.1.21; residues V227, H228, N301, V302
T3 sequence (D0VEC8 1-449): T2 sequence (D0VEC8 1-449 H228T) with T228H

[4] = test system: T4, O=[N+]([O-])c1ccc(O[C@@H]2O[C@H](CO)[C@@H](O)[C@H](O)[C@H]2O)cc1; assay: purified protein; type: biochemical, uncultured bacterium; conditions: no glucose, 50 mM Na2HPO4-citric acid buffer pH 7.0, optimal conditions
T4 construct: pET-22b(+) NdeI/XhoI, C-terminal His6 (kept), E. coli BL21(DE3), Ni-NTA purified; GH1, EC 3.2.1.21; residues T228, Q301, F302

[5] = test system: T5, O=[N+]([O-])c1ccc(O[C@@H]2O[C@H](CO)[C@@H](O)[C@H](O)[C@H]2O)cc1; assay: purified protein; type: biochemical, uncultured bacterium; conditions: no glucose, 50 mM Na2HPO4-citric acid buffer pH 7.0, optimal conditions
T5 construct: pET-22b(+) NdeI/XhoI, C-terminal His6 (kept), E. coli BL21(DE3), Ni-NTA purified; GH1, EC 3.2.1.21; residues V227, H228, N301, V302

Row | Compound | Km [5] [µM] | Vmax [5] [µM/min] | kcat/Km [5] [M⁻¹ s⁻¹] | also measured
1 | OC[C@H]1OC(O)[C@H](O)[C@@H](O)[C@@H]1O (stereo partly drawn) [glucose] | – | – | – | relative activity [1]: Bgl1A displayed high glucose tolerance, and was stimulated by low concentrations of glucose; relative activity [2]: only B:H228T exhibited glucose stimulation, essentially distinctive from wild-type Bgl1B; relative activity [3]: the activity of Bgl1B was persistently inhibited by glucose
2 | Bgl1A (uncultured bacterium) | – | – | – | Km [4]: 690 ± 70 µM; Vmax [4]: 2.7 µM/min; kcat/Km [4]: 35500 M⁻¹ s⁻¹
3 | Bgl1B (uncultured bacterium) | 270 ± 20 | 12.6 | 74700 | –
4 | Bgl1B (uncultured bacterium; H228T) | 360 ± 30 | 10.1 | 24200 | –
5 | Bgl1B (uncultured bacterium; N301Q/V302F) | 830 ± 70 | 8.84 | 2860 | –
